Numbering of substitutions follows the chain as printed.

Common to all, as to assay: SPR steady state; FP: PBS + 0.05% Tween20, 5 nM DNA, 1 h, room temperature; SPR: Biacore S200, SA chip, protein 0.1-4500 nM, running buffer not given in material; errors are SD
Holding throughout (settings): protein: recombinant; tags: N-terminal His8-linker-His8-TEV, cleaved; label: 3' biotin; hairpin, TTTT loop

For one data set, the target named is T1, IRF4 DBD C99A (Homo sapiens, UniProt Q15306 20-132, C99A).
T1 sequence: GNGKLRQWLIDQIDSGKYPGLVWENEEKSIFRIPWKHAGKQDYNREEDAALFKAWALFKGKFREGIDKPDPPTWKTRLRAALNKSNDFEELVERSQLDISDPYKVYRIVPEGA

The target of a further data set is T2, IRF4 DBD T95R (Homo sapiens, UniProt Q15306 20-132, T95R).
T2 sequence: T1 sequence with T76R, A80C

The target of a further data set is T3, IRF4 DBD T95A (Homo sapiens, UniProt Q15306 20-132, T95A).
T3 sequence: T1 sequence with T76A, A80C

The next data set has as its target T4, IRF4 DBD wild-type (Homo sapiens, UniProt Q15306 20-132).
T4 sequence: T1 sequence with A80C

The next data set addresses T5, IRF4 DBD T95K (Homo sapiens, UniProt Q15306 20-132, T95K).
T5 sequence: T1 sequence with T76K, A80C

A further data set addresses T6, IRF4 DBD S114R (Homo sapiens, UniProt Q15306 20-132, S114R).
T6 sequence: T1 sequence with A80C, S95R

The next data set concerns the target T7, IRF4 DBD K123R (Homo sapiens, UniProt Q15306 20-132, K123R).
T7 sequence: T1 sequence with A80C, K104R

The target of a further data set is T8, IRF4 DBD D117A (Homo sapiens, UniProt Q15306 20-132, D117A).
T8 sequence: T1 sequence with A80C, D98A

The next data set has as its target T9, IRF4 DBD C99R (Homo sapiens, UniProt Q15306 20-132, C99R).
T9 sequence: T1 sequence with A80R

In the next data set the target is T10, IRF4 DBD D117H (Homo sapiens, UniProt Q15306 20-132, D117H).
T10 sequence: T1 sequence with A80C, D98H

Regarding CTTGGTTTCACTTCCTGCGTTTTCGCAGGAAGTGAAACCAAG (structured_DNA) [IRE hairpin (biotin)], the Kd in the data set with IRF4 DBD C99A was 173 ± 60 nM; with IRF4 DBD T95R, 449 ± 49 nM; with IRF4 DBD T95A, 186 ± 82 nM; in the data set with IRF4 DBD wild-type it was 402 ± 165 nM; with IRF4 DBD T95K, 594 ± 251 nM; with IRF4 DBD S114R it was 213 ± 94 nM. Besides, the Kd with IRF4 DBD K123R worked out at 491 ± 48 nM; with IRF4 DBD D117A it was 301 ± 87 nM; with IRF4 DBD C99R, 546 ± 174 nM; with IRF4 DBD D117H, 247 ± 84 nM.

For orientation: Kd means the free concentration of one partner at which half of the binding sites on the other are occupied at equilibrium, for simple one-to-one binding.

(Values after publication doi:10.1101/2025.03.12.642038, “Structural, biophysical and biological analysis and characterisation of IRF4 DNA-binding domain mutations associated with multiple myeloma”.)
